Results reported in article PMC6625852.
One block for each molecule: values may come before it.

Tests used:
[1] = biological target: human factor VII N360Q mutant, C-terminal V5 tag (human); experiment: co-IP
[2] = biological target: human factor VII wild-type, C-terminal V5 tag (human); experiment: co-IP

level co-precipitated, percent of that with WT FVII [1]: 230%
Molecule: binding immunoglobulin protein (BiP) (from UniProt P11021 19-654) (natural protein)

level co-precipitated, percent of that with WT FVII [1]: 124% | level co-precipitated in DNJ-treated cells, percent of WT in untreated cells [2]: 129%
B1: calnexin (natural protein)
chain: HDGHDDDVIDIEDDLDDVIEEVEDSKPDTTAPPSSPKVTYKAPVPTGEVYFADSFDRGTLSGWILSKAKKDDTDDEIAKYDGKWEVEEMKESKLPGDKGLVLMSRAKHHAISAKLNKPFLFDTKPLIVQYEVNFQNGIECGGAYVKLLSKTPELNLDQFHDKTPYTIMFGPDKCGEDYKLHFIFRHKNPKTGIYEEKHAKRPDADLKTYFTDKKTHLYTLILNPDNSFEILVDQSVVNSGNLLNDMTPPVNPSREIEDPEDRKPEDWDERPKIPDPEAVKPDDWDEDAPAKIPDEEATKPEGWLDDEPEYVPDPDAEKPEDWDEDMDGEWEAPQIANPRCESAPGCGVWQRPVIDNPNYKGKWKPPMIDNPSYQGIWKPRKIPNPDFFEDLEPFRMTPFSAIGLELWSMTSDIFFDNFIICADRRIVDDWANDGWGLKKAADGAAEPGVVGQMIEAAEERPWLWVVYILTVALPVFLVILFCCSGKKQTSGMEYKKTDAPQPDVKEEEEEKEEEKDKGDEEEEGEEKLEEKQKSDAEEDGGTVSQEEEDRKPKAEEDEILNRSPRNRKPRRE
